Measurements as given in patent WO2010066762A1.

Biological target: Recombinant Interleukin-1 beta (IL-1B) (human) (UniProt P01584)
Assay: cell-based or functional assay

Chain of UniProt P01584 (P01584 117-269 limits assumed): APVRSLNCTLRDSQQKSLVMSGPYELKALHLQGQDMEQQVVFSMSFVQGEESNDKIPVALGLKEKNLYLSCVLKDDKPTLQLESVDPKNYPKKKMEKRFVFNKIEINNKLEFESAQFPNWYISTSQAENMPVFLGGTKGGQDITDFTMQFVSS

ACZ885 antibody
Bioassay [%] (relative potency vs ACZ885 reference standard); reconstituted lyophilisate F1, stored at 5°C: 103%
Bioassay [%] (relative potency vs ACZ885 reference standard); reconstituted lyophilisate F1, stored at 25°C: 99%
Bioassay [%] (relative potency vs ACZ885 reference standard); reconstituted lyophilisate F1, stored at 40°C: 93%
Bioassay [%] (relative potency vs ACZ885 reference standard); reconstituted lyophilisate F3, stored at 5°C: 101%
Bioassay [%] (relative potency vs ACZ885 reference standard); reconstituted lyophilisate F3, stored at 25°C: 91%
Bioassay [%] (relative potency vs ACZ885 reference standard); reconstituted lyophilisate F3, stored at 40°C: 95%
Reporter Gene Assay [%] (relative potency vs ACZ885 reference standard); liquid formulation 150 mg/mL, start: 121%
Reporter Gene Assay [%] (relative potency vs ACZ885 reference standard); liquid formulation, 5°C, 4 months: 97%
Reporter Gene Assay [%] (relative potency vs ACZ885 reference standard); liquid formulation, 5°C, 10 months: 99%
Reporter Gene Assay [%] (relative potency vs ACZ885 reference standard); liquid formulation, 5°C, 16.5 months: 110%
Reporter Gene Assay [%] (relative potency vs ACZ885 reference standard); liquid formulation, 5°C, 24 months (n=4): 99%
Reporter Gene Assay [%] (relative potency vs ACZ885 reference standard); liquid formulation, 25°C, 4 months: 100%
Reporter Gene Assay [%] (relative potency vs ACZ885 reference standard); liquid formulation, 25°C, 10 months: 85%
Reporter Gene Assay [%] (relative potency vs ACZ885 reference standard); liquid formulation, 25°C, 16.5 months: 74%
Reporter Gene Assay [%] (relative potency vs ACZ885 reference standard); liquid formulation, 25°C, 24 months (n=4): 70%
Reporter Gene Assay [%] (relative potency vs ACZ885 reference standard); liquid formulation, 40°C, 2 months: 78%
Reporter Gene Assay [%] (relative potency vs ACZ885 reference standard); liquid formulation, 40°C, 4 months: 53%
